Measured values taken from patent US20200392198A1 (UNIVERSITY OF COPENHAGEN, published 2020).
Ends that are not written are not given here. * marks the point of attachment. Palmitoyl = CCCCCCCCCCCCCCCC(=O)*; Lauroyl = CCCCCCCCCCCC(=O)*

T1: human GLP-2 receptor (human, UniProt O95838 1-553)
T1 sequence (looked up): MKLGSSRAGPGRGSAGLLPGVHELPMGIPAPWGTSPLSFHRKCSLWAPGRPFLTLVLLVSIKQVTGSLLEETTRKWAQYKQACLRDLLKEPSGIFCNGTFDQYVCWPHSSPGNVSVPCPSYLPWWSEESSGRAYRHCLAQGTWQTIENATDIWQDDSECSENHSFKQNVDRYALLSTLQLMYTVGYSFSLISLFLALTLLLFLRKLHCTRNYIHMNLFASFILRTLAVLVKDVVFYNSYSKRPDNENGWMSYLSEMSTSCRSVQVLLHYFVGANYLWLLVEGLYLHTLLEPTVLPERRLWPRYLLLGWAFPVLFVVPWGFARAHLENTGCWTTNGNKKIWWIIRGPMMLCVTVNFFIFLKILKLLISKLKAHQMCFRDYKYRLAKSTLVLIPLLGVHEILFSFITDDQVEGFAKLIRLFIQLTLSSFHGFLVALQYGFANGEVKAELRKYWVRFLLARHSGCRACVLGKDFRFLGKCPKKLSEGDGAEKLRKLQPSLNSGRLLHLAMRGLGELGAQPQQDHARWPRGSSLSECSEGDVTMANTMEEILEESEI

T2: human GIP receptor (human, UniProt P48546 22-466)
T2 sequence (looked up): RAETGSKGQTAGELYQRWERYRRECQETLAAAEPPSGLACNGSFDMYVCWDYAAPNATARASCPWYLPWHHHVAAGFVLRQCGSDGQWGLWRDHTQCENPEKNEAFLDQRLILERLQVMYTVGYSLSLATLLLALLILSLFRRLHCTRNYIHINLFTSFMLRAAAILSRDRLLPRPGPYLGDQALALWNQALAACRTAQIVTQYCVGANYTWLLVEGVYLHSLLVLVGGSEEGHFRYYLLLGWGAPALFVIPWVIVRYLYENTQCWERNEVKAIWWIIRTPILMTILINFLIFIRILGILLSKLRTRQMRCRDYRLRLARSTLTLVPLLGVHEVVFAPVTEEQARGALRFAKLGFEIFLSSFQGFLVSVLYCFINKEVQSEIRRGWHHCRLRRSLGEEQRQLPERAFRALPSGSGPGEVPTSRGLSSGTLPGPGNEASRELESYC


Key:
human GLP-2 receptor = target: T1, human GLP-2 receptor; assay: cell-based or functional assay
human GIP receptor = target: T2, human GIP receptor; assay: cell-based or functional assay

Row | EC50 (cAMP) (human GLP-2 receptor) [nM] | Emax (10 µM), % of native GLP-2 (human GLP-2 receptor) [%] | fold (EC50 vs native GLP-2) (human GLP-2 receptor) [fold] | logEC50 (cAMP) (human GLP-2 receptor) | EC50 (cAMP) (human GIP receptor) [nM] | Emax (10 µM), % of native GIP (human GIP receptor) [%] | fold (EC50 vs native GIP) (human GIP receptor) [fold] | logEC50 (cAMP) (human GIP receptor) | Binder
1 | 1.2 | 94 | 0.96 | -8.94 | 0.1 | 100 | 1.1 | -10 | HADGTFISDYSTILDNLAARDFINWLIQTKGKKNDWKHNITQ [GIP-GLP-2 co-agonist 34]
2 | 2.3 | 68 | 1.9 | -8.63 | 0.48 | 99 | 5.4 | -9.32 | HADGTFISDYSTILDNLAARDFINWLIQTKGK(Lauroyl)K [GIP-GLP-2 co-agonist 35]
3 | 1.4 | 57 | 1.2 | -8.85 | 0.76 | 81 | 8.5 | -9.12 | HADGTFSSDYSTILDNLAARDFINWLIQTK(Palmitoyl)ITD [GIP-GLP-2 co-agonist 23]
4 | 107 | 91 | 89 | -6.97 | 1.7 | 91 | 19 | -8.77 | HADGTFISDYSTILDNLAARDFINWLIQTK(Palmitoyl)ITK [GIP-GLP-2 co-agonist 31]
5 | 36 | 73 | 30 | -7.44 | 0.63 | 100 | 7.1 | -9.2 | HADGTFISDYSTILDNLAARDFINWLIQTK(Lauroyl)ITK [GIP-GLP-2 co-agonist 30]
6 | 20 | 71 | 17 | -7.7 | 0.79 | 100 | 8.9 | -9.1 | HADGTFISDYSTILDNLAARDFINWLIQTKGK(Palmitoyl)K [GIP-GLP-2 co-agonist 36]
7 | 1.3 | 72 | 1.1 | -8.88 | 0.41 | 100 | 4.6 | -9.39 | HADGTFSSDYSTILDNLAARDFINWLIQTKITD (not fully specified (residue 1, N-terminus); also: C16 acyl group on His 1 (attachment site not given here)) [GIP-GLP-2 co-agonist 22]
8 | 17 | 82 | 14 | -7.76 | 1.82 | 115 | 20 | -8.74 | HADGTFISDYSTILDNLAARDFINWLIQTKITK (not fully specified (residue 1, N-terminus); also: C16 acyl group on His 1 (attachment site not given here)) [GIP-GLP-2 co-agonist 29]
9 | 3.5 | 92 | 2.9 | -8.46 | 0.44 | 92 | 4.9 | -9.36 | HADGTFISDYSTIKDNLAARDFINWLIQTKITK [GIP-GLP-2 co-agonist 25]
10 | 1.2 | 112 | 0.98 | -8.93 | 0.2 | 100 | 2.2 | -9.7 | HADGTFISDYSTILDNLAAKDFINWLIQTKITK [GIP-GLP-2 co-agonist 28]
11 | 0.74 | 96 | 0.62 | -9.13 | 0.15 | 100 | 1.7 | -9.82 | HADGTFISDYSKILDNLAARDFINWLIQTKITK [GIP-GLP-2 co-agonist 24]
12 | 0.31 | 100 | 0.26 | -9.51 | 0.03 | 100 | 0.34 | -10.5 | HADGTFISDYSTILDKLAARDFINWLIQTKITK [GIP-GLP-2 co-agonist 26]
13 | 13 | 82 | 11 | -7.89 | 0.32 | 100 | 3.6 | -9.5 | HADGTFISDYSTILDNLAARDFINWLIQTKITK (C16 acyl group on Lys 33 (K(c16/33), 'with C16 pos 33')) [GIP-GLP-2 co-agonist 33]
14 | 6.2 | 91 | 5.1 | -8.21 | 0.15 | 100 | 1.7 | -9.81 | HADGTFISDYSTILDNLAARDFINWLIQTKITK (C12 acyl group on Lys 33 (K(C12/33), 'with C12 pos 33')) [GIP-GLP-2 co-agonist 32]
15 | 0.56 | 100 | 0.47 | -9.25 | 0.55 | 100 | 6.2 | -9.26 | HADGTFISDYSTILDNLKARDFINWLIQTKITK [GIP-GLP-2 co-agonist 27]
